Here are results for four molecules from PMC11648224, “RNA G-quadruplexes and calcium ions synergistically induce Tau phase transition in vitro”.

In general, Kd refers to a measure of binding affinity in units of concentration.

The target of this series is Tau (Tau441, 2N4R) (human, UniProt P10636-8 1-441). The experiment in a line: SPR; 10 mM KCl; SPR (OpenSPR): 50 mM Tris-HCl pH 7.4, 10 mM KCl; biotin-RNA on streptavidin chip, 20 ul/min, 1:1 fit; temperature not stated. Particulars: protein: recombinant, tags: none stated (pET23a-human Tau441). On the technique in general: In SPR one partner is held on a chip, and binding of the other changes the refractive index at the surface.
Chain of Tau (Tau441, 2N4R) (P10636 other isoform, or with tags, fused parts or gaps): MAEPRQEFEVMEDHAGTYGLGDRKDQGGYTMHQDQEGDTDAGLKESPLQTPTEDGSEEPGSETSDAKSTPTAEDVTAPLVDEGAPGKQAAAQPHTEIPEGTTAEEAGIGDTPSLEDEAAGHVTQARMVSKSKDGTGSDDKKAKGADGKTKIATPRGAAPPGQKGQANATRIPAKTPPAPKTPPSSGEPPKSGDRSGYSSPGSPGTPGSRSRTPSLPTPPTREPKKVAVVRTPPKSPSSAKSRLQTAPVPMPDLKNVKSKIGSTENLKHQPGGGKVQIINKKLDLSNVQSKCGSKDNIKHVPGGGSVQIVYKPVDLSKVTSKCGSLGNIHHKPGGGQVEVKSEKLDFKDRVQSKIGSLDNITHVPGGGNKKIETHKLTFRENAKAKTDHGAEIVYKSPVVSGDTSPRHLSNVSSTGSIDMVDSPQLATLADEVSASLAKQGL

Turning to UUAGGGUUAGGGUUAGGGUUAGGG (structured_RNA) [G4tr r(UUAGGG)4], the Kd (RNA G-quadruplex) turned out to be 32.1 ± 8.38 nM.
On to AAAAAAAAAAAAAAAAAAAAAAAA (ssRNA) [r(AAA)8], for which the Kd was 71.7 ± 27 nM.
UUACCGUUACCGUUACCGUUACCG (ssRNA) [G4mt r(UUACCG)4]: the Kd was found to be 52.5 ± 14.3 nM.
With CAGCAGCAGCAGCAGCAGCAGCAG (ssRNA) [r(CAG)8], the Kd turned out to be 57.3 ± 13.9 nM.
